Assay results reported in patent US20220112288A1 (published 2022).
Changes are numbered by the printed parent chain.

Legend:
[1] = molecular target: T1, human CD8 on human pan T cells (CD4-negative population) (human, UniProt P01732 22-235; P10966 22-210); assay: flow cytometry, 20 nM antibody on human pan T cells, A647 anti-human IgG Fc; geomean ratio in CD4-negative population
T1 construct: whole, on cells; Endogenous CD8 on primary human pan T cells, read in the CD4-negative gate; also called CD8α/β

[2] = molecular target: T2, human CD4 on cells (SKW3 cells; human PBMCs) (human, UniProt P01730 26-458); assay: FACS confirmation, supernatant on SKW3 cells; background gMFI 2500
T2 construct: whole, on cells; SKW3 CD4 knockout cells served as the negative cell line in the primary screen; also called hCD4; huCD4

[3] = molecular target: T2, human CD4 on cells (SKW3 cells; human …); assay: FACS confirmation, supernatant on human PBMCs;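 also: flow cytometry with hybridoma supernatants incubated on human PBMCs for 30 min at 4 °C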
[4] = molecular target: T2, human CD4 on cells (SKW3 cells; human …); assay: FACS confirmation, supernatant on SKW3 cells; background gMFI 3300
[5] = molecular target: T2, human CD4 on cells (SKW3 cells; human …); assay: FACS primary screen, hybridoma supernatant, SKW3 vs SKW3 CD4 KO cells;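 also: flow cytometry on mixed SKW3 and dye-labeled SKW3 CD4 knockout cells after 30 min at 4 °C with supernatant, ratio of binding signal on parental versus knockout cells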
[6] = molecular target: T3, human CD4 on cells (SKW3 cells; human PBMCs) (human, UniProt P01730 26-458); assay: FACS confirmation, supernatant on SKW3 WT cells, anti-mouse Fc 647; background gMFI 3300
T3 construct: whole, on cells; SKW3 CD4 knockout cells served as the negative cell line; also called hCD4

[7] = molecular target: T3, human CD4 on cells (SKW3 cells; human …); assay: FACS binning on SKW3 cells pre-incubated with supernatant; competitor RPA-T4-PE-Dazzle 594, its signal read; background 783, max binding 15000
[8] = molecular target: T3, human CD4 on cells (SKW3 cells; human …); assay: FACS binning on SKW3 cells pre-incubated with supernatant; competitor OKT4-A488, its signal read; background 2163, max binding 8200
[9] = molecular target: T3, human CD4 on cells (SKW3 cells; human …); assay: FACS confirmation, supernatant on human PBMCs, anti-mouse Fc 647, CD4+ gate
[10] = molecular target: T3, human CD4 on cells (SKW3 cells; human …); assay: FACS primary screen, non-clonal hybridoma supernatant, SKW3 vs SKW3 CD4 knockout cells, anti-mouse Fc A647
huCD4-HIS = molecular target: T4, huCD4-HIS (human, UniProt P01730 26-390, limits assumed); assay: ELISA binning, competitor Ibalizumab; 100 ng/mL huCD4-HIS, anti-HIS HRP detection; background 45, max binding 3000000
T4 construct: the ELISA binning is not described in the text of this stretch

[11] = molecular target: T3, human CD4 on cells (SKW3 cells; human …); assay: FACS confirmation, supernatant on human PBMCs, anti-mouse Fc 647, CD4+ percent of viable cells
[12] = molecular target: T3, human CD4 on cells (SKW3 cells; human …); assay: FACS confirmation, supernatant on SKW3 WT cells, anti-human kappa FITC; background gMFI 2500
[13] = molecular target: T3, human CD4 on cells (SKW3 cells; human …); assay: FACS primary screen, non-clonal hybridoma supernatant, SKW3 vs SKW3 CD4 knockout cells, anti-human kappa FITC
[14] = molecular target: T3, human CD4 on cells (SKW3 cells; human …); assay: FACS binning on SKW3 cells pre-incubated with supernatant; competitor OKT4a read with anti-human A647 secondary; background 5000, max binding 35000

T1 sequence (P01732 22-235, chain 1 of 2): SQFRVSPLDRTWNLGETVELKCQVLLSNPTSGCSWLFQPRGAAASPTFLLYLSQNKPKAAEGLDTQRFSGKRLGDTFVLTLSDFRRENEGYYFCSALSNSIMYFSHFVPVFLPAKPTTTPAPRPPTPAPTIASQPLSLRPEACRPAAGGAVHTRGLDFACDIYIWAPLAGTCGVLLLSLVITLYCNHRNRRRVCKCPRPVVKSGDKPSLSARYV
T1 sequence (P10966 22-210, chain 2 of 2): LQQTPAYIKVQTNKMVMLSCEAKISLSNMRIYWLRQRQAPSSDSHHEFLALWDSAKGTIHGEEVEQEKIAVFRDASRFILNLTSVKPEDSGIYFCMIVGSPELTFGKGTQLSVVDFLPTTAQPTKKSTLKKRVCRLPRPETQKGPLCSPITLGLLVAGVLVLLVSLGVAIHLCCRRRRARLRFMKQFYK

B1: CD8B312 (antibody, human IgG1, kappa, V domains shown)
VH: QVQLQQPGADLVKPGASVKLSCKASGYTFTSFWMHWVKQRPGQGLEWIGNVDPSDSQTHYNQKFKDKATLTVDKSSNTAYMQLSSLTSEDSAVYYCARSTYYRYDGPFTYWGQGTTVTVSS
VL: DIVLTQSPATLSVTPGDSVSLSCRASQSINNNLHWYQQKSHESPRLLIKYTSQSISGIPSRFSGSGSGPDFTLSINSVETEDFGMYFCQQSNSWPLTFGGGTKLEIKR
notes: Full-length human IgG1, kappa; V regions recovered from mouse hybridoma
- Cell Binding to Human PanT Signal/Background (of CD4 negative population) [1]: 1090

B2: CD8B347 (antibody, human IgG1, kappa)
heavy: not shown
light: DIQMTQSPASLSASVGETVTITCRASGNIHNYLAWYQQKQGKSPQLLVFNAETLADGVPSRFSGSGSGTQFSLKINSLQPEDFGTYYCQHFWNNPLTLGAGTKLELKRTVAAPSVFIFPPSDEQLKSGTASVVCLLNNFYPREAKVQWKVDNALQSGNSQESVTEQDSKDSTYSLSSTLTLSKADYEKHKVYACEVTHQGLSSPVTKSFNRGEC
notes: as for B1
- Cell Binding to Human PanT Signal/Background (of CD4 negative population) [1]: 1200

B3: CD8B350 (antibody, human IgG1, kappa, V domains shown)
VH: EVQLQQSGAELAKPGTSVKMSCKASGYTFAAYWINWLKQRPGQGLEWIGSINPSNGYTEYSQKFKDKAILTADKSSSTAYMQLSSLTSEDSAVYYCSRSGLYYTNHLAWCPYWGQGTTVTVSS
VL: DIVMTQSPASLSASVGETVTITCRASGNIHNYLAWYQQKQGKSPQVLVYNAETLADSVPSRFSGSGSGTQFSLKINSLQPEDFGNYYCQHFWNSPLTFGGGTKLEIKR
notes: as for B1
- Cell Binding to Human PanT Signal/Background (of CD4 negative population) [1]: 537

B4: CD8B356 (antibody, human IgG1, kappa, V domains shown)
VH: DVQLQESGPGLVKPSQSLSLTCSVTGYSITSGYYWNWIRQFPGNKLEWMGYISYDGSNNYNPSLKNRISITRDTSKNQFFLKLNSVTTEDTATYYCVRNHGDAMDYWGQGTSVTVSS
VL: DIVLTQSQKFMSTTVGDRVSITCKASQNVGTAVAWYQQKPGQSPKLLIYSASYRYTGVPDRFTGSGSGTHFTLTISNMQSEDLADYFCQQYSSYLTFGSGTKLEIKR
notes: as for B1
- Cell Binding to Human PanT Signal/Background (of CD4 negative population) [1]: 777

B5: CD8B182 (antibody, human IgG1, kappa, V domains shown)
VH: EVQLQQSGAALAKPGTSVKMSCKASGYTFTSYWMNWVRQRPGQGLEWIGAVNPTNYYTEYIQKFKDKAILTADKSSSTAYMHLSGLTSEDSAVYYCARSGLYNTNHLAWFAYWGQGTTVTVSS
VL: DIKMTQSPASLSASVGETVTITCRASENIHNYLAWYQQIQGKSPQLLVYNAKTLANGVPSRFSGSASGTQFSLTINSLQPEDFGSYYCQHFWTTPLTFGAGTKLELKR
notes: as for B1
- Cell Binding to Human PanT Signal/Background (of CD4 negative population) [1]: 1490

B6: 75110_06E14A (antibody, V domains shown)
VH: QVQLQESGPGLVKPSETLSLTCTVSGGSISNYFWSWIRQPAGKGLEWIGRIYSSGNTNYNPSLKSRVTMSVDTSKNQFSLKLSSVTAADTAVYYCARDREDYYYYGMDVWGQGTTVTVSS
VL: DIQMTQSPSSLSASVGDRVTITCQASQDISNYLNWYQQKPGKAPKLLIYGASILETGVPSRFTGSGSGTDFTFTISSLQPEDIATYYCQQYDSLPITFGQGTRLEIK
notes: Tested as non-clonal AlivaMab Mouse Kappa hybridoma supernatant (detected with anti-mouse Fc gamma and anti-human kappa)
- gMFI on SKW3 WT, anti-hu Kappa FITC [2]: 8920 gMFI
- PBMCs CD4+ gate RL1 binding, anti-mFc 647 [3]: 285000
- PBMCs CD4+ percent bound of viable [3]: 30%
- gMFI on SKW3 WT, anti-mFc 647 [4]: 33800 gMFI
- SKW3 WT vs KO ratio, anti-hKappa-FITC [5]: 3
- SKW3 WT vs KO ratio, anti-mFc-647 [5]: 9.8

B7: 75110_08M20A (antibody, V domains shown)
VH: B6 VH with G8D, N31S, F33Y, S53A, N56S, D101G
VL: B6 VL with N31K, K45N, G50A, I53N, T63S, T85A
notes: as for B6
- gMFI on SKW3 WT, anti-hu Kappa FITC [2]: 7790 gMFI
- PBMCs CD4+ gate RL1 binding, anti-mFc 647 [3]: 319000
- PBMCs CD4+ percent bound of viable [3]: 30%
- gMFI on SKW3 WT, anti-mFc 647 [4]: 30700 gMFI
- SKW3 WT vs KO ratio, anti-hKappa-FITC [5]: 2.7
- SKW3 WT vs KO ratio, anti-mFc-647 [5]: 8.8

B8: CD8B251 (antibody, human IgG1, kappa, V domains shown)
VH: QVQLKGSGPGLVQPSQSLSITCTVSGFSLTTYAVHWVRQSPGKGLEWLGVIWSGGSTDYNAAFISRLSISKDNSKSQVFFKMNSLQADDTAIYYCARHSYYHYNAMDNWGQGTSVTVSS
VL: DIKMTQSQKFMSTTVGDRVSITCKASQNVGTAVAWYQQKPGQSPKLLIYSASNRYTGVPDRFTGSGSGTDFTLTISNMQSEDLADYFCQQYSSYPFTFGSGTKLEIKR
notes: as for B1
- Cell Binding to Human PanT Signal/Background (of CD4 negative population) [1]: 37

B9: CD8B269 (antibody, human IgG1, kappa, V domains shown)
VH: B4 VH with Y106H, S112T, V113L
VL: DIVMTQSQKFMSTSVGDRVRVTCKASQNVGTDVAWYQQKPGQSPKALIYSASYRYSGVPDRFTGSGSGTDFTLTISDVQSEDLAEYFCQQYKSYPLTFGAGTKLELKR
notes: as for B1
- Cell Binding to Human PanT Signal/Background (of CD4 negative population) [1]: 26

B10: CD8B310 (antibody, human IgG1, kappa, V domains shown)
VH: QVQLKESGPGLVAPSQSLSITCTVSGFSLTNYAVHWVRQSPGKGLEWLGVIWTDGSTDYNAGFISRLSISKDNSKSQVFFKMNSLQADDTAIYYCARNNGYFPAFFAYWGQGTTVTVSS
VL: DVLMTQTPLSLPVSLGDQASISCRSSQTIVHSNGNTYLEWYLQKPGQSPKLLMYKVSNRFSGVPDRFGGSGSGTDFTLKISRVEAEDLGVYYCFQGSHAPFTFGSGTKLEIKR
notes: as for B1
- Cell Binding to Human PanT Signal/Background (of CD4 negative population) [1]: 29

B11: CD8B319 (antibody, human IgG1, kappa, V domains shown)
VH: QVQLKESGPELKKPGETVKISCKASGYSFTAYYMHWVKQSPEKSLEWIGEINPSAGGTTYNQKFKAKATLTVDKSSSTAFIQLKSLTSEDSAVYYCARWTNPFDYWGQGTTLTVSS
VL: B4 VL with L4M, M78I, S92N, S93N
notes: as for B1
- Cell Binding to Human PanT Signal/Background (of CD4 negative population) [1]: 16

B12: 75110_14I16A (antibody, V domains shown)
VH: B6 VH with G26N, N31S, F33Y, P40S, S53T, N56S, S70L
VL: DIQMTQSPSSLSASVGDRVTITCQASHDISNYLNWYQQKPGKAPKLLLYYASNLETGVPSRFSGSGSGTDFTFTITSLQPEDIGTYSCQQYDNLPLTFGGGTKVEIK
notes: Tested as non-clonal AlivaMab Mouse Kappa hybridoma supernatant (detected with anti-mouse Fc gamma and anti-human kappa); also called 75110_14116A
- gMFI on SKW3 WT, anti-hu Kappa FITC [2]: 3550 gMFI
- PBMCs CD4+ gate RL1 binding, anti-mFc 647 [3]: 196000
- PBMCs CD4+ percent bound of viable [3]: 23%
- gMFI on SKW3 WT, anti-mFc 647 [4]: 6820 gMFI
- SKW3 WT vs KO ratio, anti-hKappa-FITC [5]: 1.4
- SKW3 WT vs KO ratio, anti-mFc-647 [5]: 2.1

B13: 75110_06D16A (antibody, V domains shown)
VH: QVQLQQWGAGLLKPSETLSLTCAVYGGSFSGYYWSWIRQPPGKGLEWIGEINHSGSTNYNPSLKSRVTISVVTSKNQFSLKLSSVTAADTAVYYCARVLNWFDPWGQGTLVTVSS
VL: DIQMTQSPSSVSASVGDRVTITCRASQDIADWLAWYQQKPGKAPKLLIYAASSFQSGVPSRFSGSGSGTDFTLTISSLQPEDFATYFCQQANSFPYTFGQGTKLEIK
notes: Tested as non-clonal AlivaMab Mouse Kappa hybridoma supernatant: human variable domains and human kappa, mouse Fc (detected with anti-mouse Fc)
- SKW3 WT anti-mFc 647, gMFI [6]: 41300 gMFI
- SKW3 FACS Binning RPA-T4-PE-Dazzle 594 [7]: 21300
- SKW3 FACS Binning OKT4 A488 [8]: 9980
- PBMCs, anti-mFc 647 CD4+ gate - RL1 Binding [9]: 216000
- SKW3 WT vs KO anti-mFc-647 [10]: 4 fold
- Ibalizumab ELISA binning signal (huCD4-HIS): 1.27e+06
- PBMCs, anti-mFc 647 CD4+ Percent Bound of Viable [11]: 29%
- SKW3 WT anti-hu Kappa FITC, gMFI [12]: 8670 gMFI
- SKW3 WT vs KO anti-hKappa-FITC [13]: 2.5 fold
- SKW3 FACS Binning OKT4a anti-hu A647 Secondary [14]: 5800

B14: 75110_07B16A (antibody, IgG1, V domains shown)
VH: B13 VH with P40S, H53Q, V72D, N76D, L99I, P104S, T109S
VL: B13 VL with D28G, A30S, D31S, A50D, P80T, E81D, F87Y
notes: Tested as non-clonal AlivaMab Mouse Kappa hybridoma supernatant: human variable domains and human kappa, mouse Fc
- SKW3 WT anti-mFc 647, gMFI [6]: 30800 gMFI
- SKW3 FACS Binning RPA-T4-PE-Dazzle 594 [7]: 20600
- SKW3 FACS Binning OKT4 A488 [8]: 9280
- PBMCs, anti-mFc 647 CD4+ gate - RL1 Binding [9]: 274000
- SKW3 WT vs KO anti-mFc-647 [10]: 11.4 fold
- Ibalizumab ELISA binning signal (huCD4-HIS): 1.31e+06
- PBMCs, anti-mFc 647 CD4+ Percent Bound of Viable [11]: 29%
- SKW3 WT anti-hu Kappa FITC, gMFI [12]: 7220 gMFI
- SKW3 WT vs KO anti-hKappa-FITC [13]: 3 fold
- SKW3 FACS Binning OKT4a anti-hu A647 Secondary [14]: 5320
